Results on one substance are retold here after article doi:10.1101/774158.

The term Kd denotes the concentration at which binding is half-saturated. Higher therefore signals weaker binding.

Series [1] concerns the target CDA-ZnF-KLF1 E321K (mouse) (UniProt P46099). The series is described as follows: EMSA.
A further series addresses WT-ZnF-KLF1 (mouse) (UniProt P46099). The series is described as follows: EMSA.

Sequence of CDA-ZnF-KLF1 E321K (mouse) (P46099 275-358 E321K): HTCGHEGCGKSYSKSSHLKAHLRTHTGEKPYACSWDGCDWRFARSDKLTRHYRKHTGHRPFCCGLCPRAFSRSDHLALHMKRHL
Sequence of WT-ZnF-KLF1 (mouse) (P46099 275-358): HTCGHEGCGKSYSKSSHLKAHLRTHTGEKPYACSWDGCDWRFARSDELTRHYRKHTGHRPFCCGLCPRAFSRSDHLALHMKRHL

With beta-globin site, the dissociation constant (Kd) in series [1] came to 238 µM; in the series with WT-ZnF-KLF1 (mouse), 0.548 µM.
